According to EP3460067A1, “PROCESS FOR ENZYMATIC OXIDATION OF LINEAR CARBOHYDRATES” (Technische Universität München, priority 2017, dated 2019):
Blank lines part the entries; values can stand above or below the molecule they belong to.

How the values were obtained:
[1] = target: T1, SpsADH (Sphingomonas sp. A1, UniProt A0A075B5H4); test: photometric SpsADH enzyme assay, oxidation of substrates (NAD+/NADH at 340 nm); format: biochemical, Sphingomonas species A1
T1 sequence (A0A075B5H4 1-258): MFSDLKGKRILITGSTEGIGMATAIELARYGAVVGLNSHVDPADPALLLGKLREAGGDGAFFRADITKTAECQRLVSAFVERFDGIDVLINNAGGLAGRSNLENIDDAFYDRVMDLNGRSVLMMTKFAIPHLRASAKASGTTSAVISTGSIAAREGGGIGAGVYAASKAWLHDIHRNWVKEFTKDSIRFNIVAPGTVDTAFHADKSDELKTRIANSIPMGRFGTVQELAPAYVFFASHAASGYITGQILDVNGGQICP
Description: The activity of SpsADH was determined photometrically by monitoring the increase/decrease of NAD^+/NADH at 340 nm using the Infinite 200 pro photometer (Tecan Group Ltd.). Reactions were performed at 25 C in triplicate using 96-well microtiter plates. For determination of the substrate scope, the reaction mixtures contained 50 mM ammonium bicarbonate, pH 7.9, 0.3 mM NADH (or 1 mM NAD^+), a defined alcohol, aldehyde, aldonic acid or uronic acid as substrate and the purified enzyme. One unit of enzyme activity was defined as the amount of protein that reduces (oxidizes) 1 µmol of NAD(H)/min at […]. Calculation of Michaelis-Menten kinetics for determination of Km and vmax was done with Sigma-Plot 11.0 (Systat Software).

[2] = substrate: O=C(O)[C@@H](O)[C@H](O)[C@H](O)CO; test: as above; format: biochemical, Sphingomonas species A1; settings: other: oxidation of C5/C6 aldonates by SpsADH (Table 3); pH 7.9
Description: (§1) The activity of SpsADH was determined photometrically by monitoring the increase/decrease of NAD^+/NADH at 340 nm using the Infinite 200 pro photometer (Tecan Group Ltd.). Reactions were performed at 25 C in triplicate using 96-well microtiter plates. For determination of the substrate scope, the reaction mixtures contained 50 mM ammonium bicarbonate, pH 7.9, 0.3 mM NADH (or 1 mM NAD^+), a defined alcohol, aldehyde, aldonic acid or uronic acid as substrate and the purified enzyme. One unit of enzyme activity was defined as the amount of protein that reduces (oxidizes) 1 µmol of NAD(H)/min at 37 °C. Calculation of Michaelis-Menten kinetics for determination of Km and vmax was done with Sigma-Plot 11.0 (Systat Software).

[3] = substrate: O=C(O)[C@H](O)[C@H](O)[C@H](O)CO; test: as above; format: biochemical, Sphingomonas species A1; settings: other: oxidation of C5/C6 aldonates by SpsADH (Table 3); pH 7.9
Description: as §1

[4] = substrate: O=C(O)C(=O)C[C@H](O)[C@H](O)CO; test: as above; format: biochemical, Sphingomonas species A1; settings: other: oxidation of KDG by SpsADH, 50 mM ammonium bicarbonate pH 7.9, NAD+, 25 C
Description: as §1

[5] = substrate: O=C(O)[C@@H](O)[C@H](O)[C@H](O)[C@H](O)CO; test: purified protein, by the assay type; settings: other: oxidation of C5/C6 aldonates by SpsADH (Table 3); pH 7.9
[6] = substrate: O=C(O)[C@H](O)[C@@H](O)[C@H](O)[C@H](O)CO; test: purified protein, by the assay type; settings: other: oxidation of C5/C6 aldonates by SpsADH (Table 3); pH 7.9
[7] = substrate: O=C(O)[C@H](O)[C@H](O)[C@H](O)[C@H](O)CO; test: purified protein, by the assay type; settings: other: oxidation of C5/C6 aldonates by SpsADH (Table 3); pH 7.9
[8] = substrate: O=C(O)[C@@H](O)[C@@H](O)[C@H](O)[C@H](O)CO; test: purified protein, by the assay type; settings: other: oxidation of C5/C6 aldonates by SpsADH (Table 3); pH 7.9

Molecule: OC[C@@H](O)[C@@H](O)[C@H](O)[C@@H](O)CO [D-sorbitol]
activity ([1]; oxidation by SpsADH, polyol): 1.7 mU/mg
vmax ([1]; oxidation of D-sorbitol to L-gulose by SpsADH): 6.2 ± 0.1 mU/mg

oxidative activity ([1]; native substrate KDG, result in words): very low oxidative activity
Molecule: O=C(O)C(=O)C[C@H](O)[C@H](O)CO [KDG, 2-keto-3-deoxy-D-gluconate]

B1: SpsADH (Sphingomonas sp. A1) (protein)
chain: MFSDLKGKRILITGSTEGIGMATAIELARYGAVVGLNSHVDPADPALLLGKLREAGGDGAFFRADITKTAECQRLVSAFVERFDGIDVLINNAGGLAGRSNLENIDDAFYDRVMDLNGRSVLMMTKFAIPHLRASAKASGTTSAVISTGSIAAREGGGIGAGVYAASKAWLHDIHRNWVKEFTKDSIRFNIVAPGTVDTAFHADKSDELKTRIANSIPMGRFGTVQELAPAYVFFASHAASGYITGQILDVNGGQICP
Km [2]: 25.6 ± 2.6 mM
Vmax [2]: 0.01 ± 0.00 U/mg
kcat [2]: 0.01 ± 0.00 s⁻¹
kcat/Km [2]: 0.2 ± 0.0 M⁻¹ s⁻¹
Km [3]: 16.9 ± 1.4 mM
Vmax [3]: 0.01 ± 0.00 U/mg
kcat [3]: 0.01 ± 0.00 s⁻¹
kcat/Km [3]: 0.3 ± 0.1 M⁻¹ s⁻¹
Km [4]: 20.9 ± 3.16 mM
Vmax [4]: 1.81 ± 0.009 U/mg
kcat [4]: 0.89 ± 0.047 s⁻¹
kcat/Km [4]: 42.5 ± 8.68 M⁻¹ s⁻¹
Km [5]: 27.0 ± 4.2 mM
Vmax [5]: 0.32 ± 0.01 U/mg
kcat [5]: 0.16 ± 0.01 s⁻¹
kcat/Km [5]: 5.8 ± 1.2 M⁻¹ s⁻¹
Km [6]: 15.7 ± 1.6 mM
Vmax [6]: 1.28 ± 0.04 U/mg
kcat [6]: 0.63 ± 0.02 s⁻¹
kcat/Km [6]: 40.0 ± 5.4 M⁻¹ s⁻¹
Km [7]: 17.1 ± 2.4 mM
Vmax [7]: 0.28 ± 0.01 U/mg
kcat [7]: 0.14 ± 0.01 s⁻¹
kcat/Km [7]: 8.1 ± 1.4 M⁻¹ s⁻¹
Km [8]: 18.3 ± 1.3 mM
Vmax [8]: 0.52 ± 0.01 U/mg
kcat [8]: 0.26 ± 0.00 s⁻¹
kcat/Km [8]: 13.9 ± 1.2 M⁻¹ s⁻¹
